Assay results published in patent US20250152746A1, “BASE EDITING OF ANGPTL3 AND METHODS OF USING SAME FOR TREATMENT OF DISEASE” (Verve Therapeutics, Inc., priority 2020, published 2025).
In the oligonucleotide strings, read from the 5' end, every base follows the letter of its sugar. An asterisk marks phosphorothioate; unmarked linkages are phosphodiester. Other units and linkages are bracketed, terminal groups are in braces. A string of capitals states the bases alone. m = 2'-O-methyl; r = 2'-OH (RNA)

How the values were obtained:
PCSK9 gene [1] = assay: PCSK9 gRNA/SpCas9 editing in primary human hepatocytes (Tables 2, 4); format: cell-based; details: SpCas9 mRNA MS002 1:1 by weight; for Human Primary Hepatocyte Editing % 100: 100 ng/RNA/mL; for Human Primary Hepatocyte Editing % 500: 500 ng/RNA/mL; for Human Primary Hepatocyte Editing % 2500: 2500 ng/RNA/mL
Protocol: In set of experiments, PCSK9 gRNAs were co-transfected with an equivalent amount (1:1 ratio by weight) of in vitro transcribed commercially available SpCas9 mRNA MS002 purchased from TriLink Biotechnologies into primary human hepatocytes at 2500, 500, or 100 ng/RNA/mL and processed as described in detailed methods. Extracted genomic DNA was analyzed for gene editing at the target site with next-generation sequencing of PCR amplicons generated around the target sites. Samples were prepared using the Nextera XT DNA library preparation kit (Illumina) according to the manufacturer's protocol. Briefly, two rounds of PCR were performed first to amplify the region of interest and second to add DNA sequences required for next generation sequencing and sample identification to the initial product. The final amplicon was sequenced on the Illumina MiSeq instrument according to the manufacturer's protocol. A wide range of editing activities (Table 2) were observed. In a second set of experiments, ANGPTL3 gRNAs were co-transfected with an equivalent amount of in vitro transcribed SpCas9 mRNA (1:1 ratio by weight) into primary human hepatocytes and processed and analyzed similarly (Table 3).
PCSK9 gRNAs were co-transfected with an equivalent amount of in vitro transcribed SpCas9 mRNA MS002 (1:1 ratio by weight) into primary human hepatocytes and processed as described in detailed methods. A wide range of editing activities were observed (Table 4; ND=Not determined). The guides with the highest editing activity at five days post transfection were GA001, GA002, GA007, and GA008.
Human primary hepatocytes were transfected at 2500, 1250, 500, and 250 ng/test article/mL with SpCas9 mRNA MS002 and a gRNA targeting PCSK9 with modifications to the tracr. Genomic DNA was processed, sequenced, and analyzed as described in the detailed methods section. GA156 was transfected to serve as a positive control.
Plating, culturing, and transfection of primary hepatocytes. Primary human liver hepatocytes (PHH) and primary cynomolgus liver hepatocytes (PCH) from BioIVT were cultured per the manufacturer's protocol. Briefly, primary human hepatocytes and primary cyno hepatocytes were obtained as frozen aliquots from BioIVT. Four lots of primary human hepatocytes, each derived from a de-identified individual donor, were used for the experiments: STL (main donor) was used for all experiments, including screening experiments and off-target experiments; HLY, JLP, and TLY were used for off-target experiments. The HFG lot of primary cyno hepatocytes were used for experiments. Following the manufacturer's instructions, cells were thawed and rinsed prior to plating in 24-well plates that had been coated with bovine collagen overnight, with a density of approximate 350,000 cells/well in INVITROGRO hepatocyte medium supplemented with TORPEDO antibiotic mix (BioIVT). The cells were thawed and resuspended in hepatocyte thawing medium followed by centrifugation at 100 g for 10 min at 4° C. The supernatant was discarded, and the pelleted cells resuspended in hepatocyte plating medium. Each vial contains approximately 5 million cells that were used for plating one 24-well plate. Plated cells were allowed to settle and adhere for 4-6 h in a tissue culture incubator at 37° C. under 5% CO2 atmosphere. After incubation, cells were checked for monolayer formation. The incubating media were then replaced with fresh hepatocyte maintenance media (complete INVITROGRO medium obtained from BioIVT, the cell line provider). The cells thus became ready for transfection. Each of the gRNAs were co-transfected with an equivalent amount of in vitro transcribed ABE8.8 mRNA (1:1 ratio by molecular weight) into primary human hepatocytes via MessengerMax reagent (Lipofectamine), using various dilutions to assess for editing activity at different concentrations of test article. MessengerMAX from Thermo Fisher is used for transfection. […]

PCSK9 gene [2] = assay: PCSK9 gRNA/SpCas9 editing in primary cynomolgus hepatocytes (Tables 2, 22); format: cell-based, cynomolgus monkey; details: SpCas9 mRNA MS002 1:1 by weight; for Cyno Primary Hepatocyte Editing % 100: 100 ng/RNA/mL; for Cyno Primary Hepatocyte Editing % 500: 500 ng/RNA/mL; for Cyno Primary Hepatocyte Editing % 2500: 2500 ng/RNA/mL

Row | Molecule | Human Primary Hepatocyte Editing % 100 (PCSK9 gene [1]) | Human Primary Hepatocyte Editing % 500 (PCSK9 gene [1]) | Human Primary Hepatocyte Editing % 2500 (PCSK9 gene [1]) | Cyno Primary Hepatocyte Editing % 100 (PCSK9 gene [2]) | Cyno Primary Hepatocyte Editing % 500 (PCSK9 gene [2]) | Cyno Primary Hepatocyte Editing % 2500 (PCSK9 gene [2])
1 | GA157: PCSK9 gRNA; protospacer GCCGTCCTCCTCGGAACGCA (SEQ ID NO: 151) (nucleic acid) guide: mG*mC*mC*rGrUrCrCrUrCrCrUrCrGrGrArArCrGrCrArGrUrUrUrUrArGrArGrCrUrArGrArArArUrArGrCrArArGrUrUrArArArArUrArArGrGrCrUrArGrUrCrCrGrUrUrArUrCrArArCrUrUrGrArArArArArGrUrGrGrCrArCrCrGrArGrUrCrGrGrUrGrCrU*mU*mU*mU | 0.62% | 2.82% | 10.03% | 0.78% | 2.93% | 13.78%
2 | GA192: PCSK9 gRNA; protospacer CCATGTCGACTACATCGAGG (SEQ ID NO: 186) (nucleic acid) guide: mC*mC*mA*rUrGrUrCrGrArCrUrArCrArUrCrGrArGrGrGrUrUrUrUrArGrArGrCrUrArGrArArArUrArGrCrArArGrUrUrArArArArUrArArGrGrCrUrArGrUrCrCrGrUrUrArUrCrArArCrUrUrGrArArArArArGrUrGrGrCrArCrCrGrArGrUrCrGrGrUrGrCrU*mU*mU*mU | 1.14% | 6.02% | 16.7% | 0.60% | 1.50% | 10.26%
3 | GA195: PCSK9 gRNA; protospacer ACCACCGGGAAATCGAGGGC (SEQ ID NO: 189) (nucleic acid, sugars from the 5' end m3 r94 m3, linkages s3 o93 s3 (s phosphorothioate, o phosphodiester), T or U not given here) guide: ACCACCGGGAAAUCGAGGGCGUUUUAGAGCUAGAAAUAGCAAGUUAAAAUAAGGCUAGUCCGUUAUCAACUUGAAAAAGUGGCACCGAGUCGGUGCUUUU | 3.58% | 13.3% | 12.57% | 0.69% | 4.77% | 18.78%
4 | GA193: PCSK9 gRNA; protospacer GGGGCTGGTATTCATCCGCC (SEQ ID NO: 187) (nucleic acid, sugars from the 5' end m3 r94 m3, linkages s3 o93 s3 (s phosphorothioate, o phosphodiester), T or U not given here) guide: GGGGCUGGUAUUCAUCCGCCGUUUUAGAGCUAGAAAUAGCAAGUUAAAAUAAGGCUAGUCCGUUAUCAACUUGAAAAAGUGGCACCGAGUCGGUGCUUUU | 3.92% | 15.68% | 35.77% | 8.70% | 32.02% | 52.89%
5 | GA196: PCSK9 gRNA; protospacer GAGTGACCACCGGGAAATCG (SEQ ID NO: 190) (nucleic acid, sugars from the 5' end m3 r94 m3, linkages s3 o93 s3 (s phosphorothioate, o phosphodiester), T or U not given here) guide: GAGUGACCACCGGGAAAUCGGUUUUAGAGCUAGAAAUAGCAAGUUAAAAUAAGGCUAGUCCGUUAUCAACUUGAAAAAGUGGCACCGAGUCGGUGCUUUU | 0.75% | 2.9% | 17.19% | 1.09% | 3.4% | 27.79%
6 | GA194: PCSK9 gRNA; protospacer GTCGACATGGGGCAACTTCA (SEQ ID NO: 188) (nucleic acid, sugars from the 5' end m3 r94 m3, linkages s3 o93 s3 (s phosphorothioate, o phosphodiester), T or U not given here) guide: GUCGACAUGGGGCAACUUCAGUUUUAGAGCUAGAAAUAGCAAGUUAAAAUAAGGCUAGUCCGUUAUCAACUUGAAAAAGUGGCACCGAGUCGGUGCUUUU | 2.32% | 12.39% | 32.97% | 2.38% | 9.49% | 30.91%
